# The supplement of paper PMC10126150
# ± gives the standard deviation of the averaged measurements.
# System: ATP
# Test: switch fluorescence ratio, 500 uM ATP over buffer (Cy3 cluster intensity, sum of 5 cycles each) (fold (ratio)); higher = stronger signal-on switching upon ATP binding; sequences stand for … in TCGTCGGCAGCGTCAGATGTGTATAAGAGACAGTTTTTTTTTTTTTTTTTTTTTTTTT…TC
# Details: aptamer strand: ATP DNA aptamer (quencher-CACCTGGGGGAGTATTGCGGAGGAAGG + anchor), 100 nM annealed; ATP concentration: 500 uM
# Procedure, shortened: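 Between each of five buffer/ATP cycles, the flow-cell was stripped with NaOH and re-annealed. Each cycle imaged Cy3-labelled switching-strand clusters, annealed to 100 nM quencher-labelled ATP aptamer on a modified Illumina MiSeq flow-cell, first in selection buffer and then after 15 min with 500 uM ATP at 22 °C. The fluorescence ratio is summed target-cycle over summed buffer-cycle Cy3 intensity per cluster, averaged per switch-domain sequence, with clusters outside 100-1000 RFU excluded.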
# 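Note: ATP exposure 15 min at 22 °C before imaging.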
sequence,measurement,value
TTAAGTTGGG,switch fluorescence ratio,0.989 ± 0.038
TTGATTGTTG,switch fluorescence ratio,0.982 ± 0.013
CTTTTGCGCA,switch fluorescence ratio,1.007 ± 0.0079
ATCGAGTGCT,switch fluorescence ratio,0.952 ± 0.016
TTTTTCTAAG,switch fluorescence ratio,1.014 ± 0.007
TTAATTAAAG,switch fluorescence ratio,0.993 ± 0.017
GTTTGAGTCT,switch fluorescence ratio,1.01 ± 0.028
GGGTTGGGGT,switch fluorescence ratio,0.997 ± 0.041
GGGGATAAAA,switch fluorescence ratio,1.01 ± 0.034
AAACGGGGAG,switch fluorescence ratio,0.991 ± 0.021
TCAAGGGGGA,switch fluorescence ratio,1 ± 0.035
ACAGTGGGAA,switch fluorescence ratio,1.014 ± 0.0044
GGGGTTTTTG,switch fluorescence ratio,0.995 ± 0.029
AATTAGTATG,switch fluorescence ratio,0.999 ± 0.014
AAAATCAGGC,switch fluorescence ratio,0.944 ± 0.085
GAATTATTAA,switch fluorescence ratio,0.9922 ± 0.0026
AAAGACGACA,switch fluorescence ratio,1.27 ± 0.29
TTTAAAGGGA,switch fluorescence ratio,1.06 ± 0.17
AGAAACAGCT,switch fluorescence ratio,1.04 ± 0.046
GGGATTTGTA,switch fluorescence ratio,1.02 ± 0.017
ATGCAGAAAT,switch fluorescence ratio,1.41 ± 0.83
GAAAAGATTG,switch fluorescence ratio,0.972 ± 0.024
AGGGCACAGT,switch fluorescence ratio,0.995 ± 0.016
ACACAAATGA,switch fluorescence ratio,1.01 ± 0.024
AAGTATCGAC,switch fluorescence ratio,1.05 ± 0.023
TAAGCGGCGG,switch fluorescence ratio,1 ± 0.036
ACAGTATTCT,switch fluorescence ratio,1.047 ± 0.01
AGGAGATTCA,switch fluorescence ratio,0.959 ± 0.041
ACAGGAGAC,switch fluorescence ratio,1.0379 ± 0.00024
GGTGAATGGC,switch fluorescence ratio,1.03 ± 0.017
AATAAAGGTT,switch fluorescence ratio,1.1 ± 0.18
ACAGGGCTAT,switch fluorescence ratio,1.02 ± 0.014
TGGATGACGC,switch fluorescence ratio,0.96 ± 0.12
CGCGAGGCGT,switch fluorescence ratio,1.07 ± 0.12
TCATGGGGTG,switch fluorescence ratio,1.05 ± 0.07
GGTCCTAATA,switch fluorescence ratio,1 ± 0.026
AACATTTTAA,switch fluorescence ratio,0.965 ± 0.04
ATTGACTCAG,switch fluorescence ratio,1.01 ± 0.012
AATGGCATGG,switch fluorescence ratio,1.02 ± 0.016
ACTGAATTTG,switch fluorescence ratio,1.02 ± 0.053
TAATGATTGA,switch fluorescence ratio,0.985 ± 0.0078
TTTTAGGCAC,switch fluorescence ratio,1.03 ± 0.018
TCGGGTGGGA,switch fluorescence ratio,1.05 ± 0.058
ATGTTGTTGT,switch fluorescence ratio,0.981 ± 0.033
GGGGGGATCG,switch fluorescence ratio,0.9791 ± 0.008
AGGGTCTACG,switch fluorescence ratio,0.997 ± 0.044
GAAAGCGGTG,switch fluorescence ratio,1.01 ± 0.015
GGGAGGCTCG,switch fluorescence ratio,1 ± 0.0082
ACGGAATTGT,switch fluorescence ratio,1.07 ± 0.029
TGGGACTCGA,switch fluorescence ratio,0.991 ± 0.035
GTTTGGGGTT,switch fluorescence ratio,0.979 ± 0.031
CGATGGGCCT,switch fluorescence ratio,1.01 ± 0.024
TGTACTAGGA,switch fluorescence ratio,0.968 ± 0.018
TACGTAACAG,switch fluorescence ratio,1.24 ± 0.064
CTTGGGGAGC,switch fluorescence ratio,0.982 ± 0.07
TGTTGTAGAA,switch fluorescence ratio,0.973 ± 0.013
TTTATGAGGA,switch fluorescence ratio,1.02 ± 0.021
AAGGCAATTT,switch fluorescence ratio,1.02 ± 0.048
AAAAAGCTTT,switch fluorescence ratio,1.026 ± 0.0047
TGTGTGTTTT,switch fluorescence ratio,1.01 ± 0.027
GCATTAGCTT,switch fluorescence ratio,1.007 ± 0.01
ATGTCTTTGA,switch fluorescence ratio,1.03 ± 0.038
TCACGGTAGG,switch fluorescence ratio,0.999 ± 0.012
TCGGAAGACA,switch fluorescence ratio,1.01 ± 0.0069
TGGCAAAATG,switch fluorescence ratio,0.9915 ± 0.0088
AAGGAAATAG,switch fluorescence ratio,0.969 ± 0.0021
GCGTCCACCA,switch fluorescence ratio,1.03 ± 0.067
GATTGGAAAG,switch fluorescence ratio,1.0069 ± 0.00042
AATGGTGTAC,switch fluorescence ratio,1.03 ± 0.011
TGACGGGAGG,switch fluorescence ratio,0.991 ± 0.04
GGTCTAAGTA,switch fluorescence ratio,1.08 ± 0.084
CGAGGGGAGT,switch fluorescence ratio,1.006 ± 0.0011
AGAGATTGGG,switch fluorescence ratio,0.965 ± 0.017
ATCGTTAAGC,switch fluorescence ratio,1.03 ± 0.022
TGTTGAGCTC,switch fluorescence ratio,0.9936 ± 0.0084
TTGTGGGGGC,switch fluorescence ratio,0.991 ± 0.038
CGGTGGAGCT,switch fluorescence ratio,1.01 ± 0.052
TAGTCGAGAT,switch fluorescence ratio,0.989 ± 0.029
CTTAAATTCG,switch fluorescence ratio,0.987 ± 0.018
TGGAGCCTGG,switch fluorescence ratio,0.984 ± 0.021
AAAAGTTGGT,switch fluorescence ratio,1.02 ± 0.083
AGTTCAATT,switch fluorescence ratio,0.9971 ± 0.0032
GATTTATTTT,switch fluorescence ratio,0.994 ± 0.017
TGACTTATGG,switch fluorescence ratio,0.983 ± 0.08
AGGGTTTCAG,switch fluorescence ratio,0.98 ± 0.026
AGGGCTTGTG,switch fluorescence ratio,0.987 ± 0.012
GGATTTTAGG,switch fluorescence ratio,0.997 ± 0.019
TCCCTTTGGC,switch fluorescence ratio,1.01 ± 0.04
CTCTGGGGCG,switch fluorescence ratio,1.01 ± 0.023
CGGATTGTAG,switch fluorescence ratio,1.03 ± 0.04
TTGGCAGTTA,switch fluorescence ratio,1.03 ± 0.061
ATTCGTGTAT,switch fluorescence ratio,0.977 ± 0.04
TGGTTCGCTA,switch fluorescence ratio,1.02 ± 0.013
TATTGACGCC,switch fluorescence ratio,1.09 ± 0.033
GTTTCGTTGT,switch fluorescence ratio,0.9798 ± 0.0019
TTTTGAAAGA,switch fluorescence ratio,1.01 ± 0.062
AATAGGCTGG,switch fluorescence ratio,1.03 ± 0.013
GCGGTGGGGA,switch fluorescence ratio,1.03 ± 0.027
ATCGGTAGGT,switch fluorescence ratio,0.99 ± 0.019
GACGGTGTGC,switch fluorescence ratio,1.077 ± 0.0059
TAGGGTGCTT,switch fluorescence ratio,1.04 ± 0.036
TATTGCGCTC,switch fluorescence ratio,1.09 ± 0.065
CTTTAACGTT,switch fluorescence ratio,0.981 ± 0.0073
AAGAGGGGAG,switch fluorescence ratio,1.01 ± 0.013
GCGACATGAT,switch fluorescence ratio,1.025 ± 0.0011
TTTTCGATAG,switch fluorescence ratio,1 ± 0.013
TTAAAAAGTT,switch fluorescence ratio,1 ± 0.031
TTAGACCGTG,switch fluorescence ratio,0.956 ± 0.079
AAAGTTAGGG,switch fluorescence ratio,1.01 ± 0.038
ACCGACGGGA,switch fluorescence ratio,2.72 ± 2
TGATCGCTGG,switch fluorescence ratio,1.02 ± 0.042
GCGGGCACCA,switch fluorescence ratio,0.995 ± 0.024
CCGGACGCGT,switch fluorescence ratio,1.52 ± 0.26
TTGGAGTGGG,switch fluorescence ratio,0.987 ± 0.051
CAGATTTAGC,switch fluorescence ratio,0.9728 ± 0.0068
TACAGGGGGT,switch fluorescence ratio,1.02 ± 0.062
TTTGTTCCTT,switch fluorescence ratio,1.01 ± 0.04
TGCTTTATCT,switch fluorescence ratio,1.012 ± 0.0023
GGGTGTGAGG,switch fluorescence ratio,0.983 ± 0.025
AAGGGCTGTG,switch fluorescence ratio,0.9845 ± 0.007
GATATTGAAG,switch fluorescence ratio,0.974 ± 0.031
TTAGAGGGGG,switch fluorescence ratio,1.01 ± 0.032
TCGCGAGAGC,switch fluorescence ratio,1.004 ± 0.0057
GTCAGTGGGC,switch fluorescence ratio,0.998 ± 0.0052
TCCATGGGTG,switch fluorescence ratio,1.52 ± 0.033
AGAAGATTGT,switch fluorescence ratio,0.989 ± 0.013
TGCCAGTGCC,switch fluorescence ratio,1.04 ± 0.022
ATTTTGTGGA,switch fluorescence ratio,0.987 ± 0.015
TAATGGTCCG,switch fluorescence ratio,1.03 ± 0.03
GGGAAAATGG,switch fluorescence ratio,1.01 ± 0.016
GTAGTAGGGA,switch fluorescence ratio,1.01 ± 0.025
ATAATCTATC,switch fluorescence ratio,0.995 ± 0.045
ATAGCTTGGG,switch fluorescence ratio,0.985 ± 0.017
TGCAGCTTGT,switch fluorescence ratio,1.0186 ± 0.00048
ATAGTACTCG,switch fluorescence ratio,1.06 ± 0.057
CGTGATAAGT,switch fluorescence ratio,1.02 ± 0.021
GGTCAAGGCC,switch fluorescence ratio,0.999 ± 0.041
AAGGAGCTGA,switch fluorescence ratio,0.9915 ± 0.0037
GGGAATTTGT,switch fluorescence ratio,0.9942 ± 0.0096
ATTTACTTGT,switch fluorescence ratio,1.05 ± 0.094
GGGGGAGAGC,switch fluorescence ratio,1.03 ± 0.043
ACTTGGGCAT,switch fluorescence ratio,0.993 ± 0.028
TGAATTTTAC,switch fluorescence ratio,1.03 ± 0.04
ATATTTATAG,switch fluorescence ratio,0.9944 ± 0.0071
CGGTACTTAT,switch fluorescence ratio,0.983 ± 0.017
ACAGGGCGGG,switch fluorescence ratio,1.01 ± 0.035
AATGTCAGCG,switch fluorescence ratio,0.999 ± 0.037
TTCAGAGTTT,switch fluorescence ratio,0.978 ± 0.014
CTTGGGGGTC,switch fluorescence ratio,0.989 ± 0.014
GAAGAGGGAT,switch fluorescence ratio,0.981 ± 0.049
CCTATCGTTG,switch fluorescence ratio,1.08 ± 0.0056
TGTCAGGGCA,switch fluorescence ratio,1.02 ± 0.064
AAGTGTATGG,switch fluorescence ratio,0.997 ± 0.0098
